Reference: the supplement of paper PMC9732359
± gives the uncertainty stated by the source.

Experiment: protein stability index of a GFP-peptide fusion (yeast GPS) (PSI 1-4); higher = more stable; sorted into four equal gates, so the index is relative within each strain
Summary of the method: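 Yeast carrying a pooled library were grown to mid-log phase in leucine-free medium. Each library plasmid expresses Cherry and has a tiled 17-residue yeast protein peptide fused downstream of GFP. Cells were sorted into four equal gates by GFP/Cherry ratio, and plasmids from each gate were PCR-amplified, Illumina-sequenced and assigned to strains by barcode. Summing, across gates, the read frequency times the gate number gave each peptide's protein stability index.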

In the case of PEDALVNDFSDITSDQL [SMC3], the protein stability index (doa10∆) is reported as 3.32 ± 0.076, the protein stability index (pdr5∆) is reported as 2.85 ± 0.091 and the protein stability index (san1∆) is reported as 3.15 ± 0.081. For the same sequence, the protein stability index (ubr1∆) was 3.31 ± 0.062.

In the case of PEEEAAIRRENEWAEDR [SKP1], the protein stability index (doa10∆) is reported as 3.09 ± 0.1, the protein stability index (pdr5∆) is reported as 3.15 ± 0.082 and the protein stability index (san1∆) is reported as 3.34 ± 0.05. It also gave a protein stability index (ubr1∆) of 3.28 ± 0.1.

Work on PEHLRKIINTHSDMASK [PRP8] yielded a protein stability index (doa10∆) of 2.01 ± 0.053, a protein stability index (pdr5∆) of 2.04 ± 0.051 and a protein stability index (san1∆) of 2.15 ± 0.097. For the same sequence, the protein stability index (ubr1∆) was 2.37 ± 0.039.

In the case of PELAMALRLSMEEEQQR [RPN10], the protein stability index (doa10∆) is reported as 3.15 ± 0.14, the protein stability index (pdr5∆) is reported as 3.09 ± 0.061 and the protein stability index (ubr1∆) is reported as 3.14 ± 0.08.

With PELGDKFSSRHGQKGVC [RET1] the protein stability index (doa10∆) was 3.26 ± 0.12, the protein stability index (pdr5∆) was 3.42 ± 0.12 and the protein stability index (san1∆) was 2.99 ± 0.14. The protein stability index (ubr1∆) was 3.09 ± 0.1.

For PEMSNLYRLSTPLRDEV [PRP8], the protein stability index (doa10∆) was 2.76 ± 0.067, the protein stability index (pdr5∆) was 2.76 ± 0.047 and the protein stability index (san1∆) was 2.56 ± 0.044. It also gave a protein stability index (ubr1∆) of 2.75 ± 0.06.

Sequence PESIRQKKARTILQHLS [PRP8] has a protein stability index (doa10∆) of 1.21 ± 0.099, a protein stability index (pdr5∆) of 1.53 ± 0.093 and a protein stability index (san1∆) of 1.12 ± 0.21. The protein stability index (ubr1∆) was 1.21 ± 0.24.

In the case of PEYGRIIASASYDKTVK [YGL100W/SEH1], the protein stability index (doa10∆) is reported as 2.27 ± 0.079, the protein stability index (pdr5∆) is reported as 2.28 ± 0.082 and the protein stability index (san1∆) is reported as 3.03 ± 0.087. The protein stability index (ubr1∆) was 2.11 ± 0.056.

PFDDDEPPLSYEQHIEN [PRP8] showed a protein stability index (doa10∆) of 2.42 ± 0.058, a protein stability index (pdr5∆) of 2.86 ± 0.092 and a protein stability index (san1∆) of 3.06 ± 0.07. It also gave a protein stability index (ubr1∆) of 2.31 ± 0.053.

Sequence PFHDPEARLFNIWGTVR [ECM29] has a protein stability index (doa10∆) of 1.33 ± 0.26 and a protein stability index (pdr5∆) of 1.43 ± 0.22.

For PFKVFLDIGLQRTTTGA [RPL5], the protein stability index (doa10∆) was 1.63 ± 0.07, the protein stability index (pdr5∆) was 2.04 ± 0.074 and the protein stability index (san1∆) was 2.23 ± 0.076. For the same sequence, the protein stability index (ubr1∆) was 1.53 ± 0.053.

Sequence PGDGSSYINVTFRAVVF [RPC25] has a protein stability index (doa10∆) of 1.5 ± 0.083, a protein stability index (pdr5∆) of 2.05 ± 0.058 and a protein stability index (san1∆) of 2.4 ± 0.077. The protein stability index (ubr1∆) was 2.08 ± 0.054.

For PGDVLDKDAFIPKLKPA [SNU114], the protein stability index (doa10∆) was 1.89 ± 0.094, the protein stability index (pdr5∆) was 1.5 ± 0.098 and the protein stability index (san1∆) was 1.2 ± 0.18. The protein stability index (ubr1∆) was 1.71 ± 0.12.

For PGHSLLLSIKLPGKVNT [SNF5], the protein stability index (doa10∆) was 2.37 ± 0.059, the protein stability index (pdr5∆) was 1.77 ± 0.039 and the protein stability index (san1∆) was 2.08 ± 0.058. It also gave a protein stability index (ubr1∆) of 2.29 ± 0.04.

In the case of PGHVNFMDETAVALAAS [SNU114], the protein stability index (doa10∆) is reported as 2.4 ± 0.062, the protein stability index (pdr5∆) is reported as 2.7 ± 0.1 and the protein stability index (san1∆) is reported as 2.29 ± 0.073. For the same sequence, the protein stability index (ubr1∆) was 2.34 ± 0.066.

PGIMLRQMNLVITLLNN [YCS4] showed a protein stability index (doa10∆) of 1.2 ± 0.06, a protein stability index (pdr5∆) of 1.11 ± 0.042 and a protein stability index (san1∆) of 1.14 ± 0.13. For the same sequence, the protein stability index (ubr1∆) was 1.19 ± 0.041.

For PGTIVLYAERVQDRGLS [RPS3], the protein stability index (doa10∆) was 2.87 ± 0.06, the protein stability index (pdr5∆) was 2.99 ± 0.056 and the protein stability index (san1∆) was 2.62 ± 0.085. It also gave a protein stability index (ubr1∆) of 3.17 ± 0.041.

Work on PGTVLILLAGRFRGKRV [RPL6A] yielded a protein stability index (doa10∆) of 1.61 ± 0.066, a protein stability index (pdr5∆) of 1.83 ± 0.069 and a protein stability index (san1∆) of 1.66 ± 0.11. The protein stability index (ubr1∆) was 2.19 ± 0.073.

With PHIQKMLSILEIFKKGY [POP6] the protein stability index (doa10∆) was 2.42 ± 0.11, the protein stability index (pdr5∆) was 2.73 ± 0.099 and the protein stability index (san1∆) was 3.1 ± 0.091. For the same sequence, the protein stability index (ubr1∆) was 2.54 ± 0.066.

In the case of PIFDYIHIDALELAGMD [SIR3], the protein stability index (doa10∆) is reported as 1.63 ± 0.053, the protein stability index (pdr5∆) is reported as 1.79 ± 0.054 and the protein stability index (san1∆) is reported as 2.05 ± 0.064. The protein stability index (ubr1∆) was 2.17 ± 0.092.
